From patent US20040002450A1, “Y17 - isolated molecules comprising epitopes containing sulfated moieties, antibodies to such epitopes, and uses thereof” (priority 2000, published 2004)

B1: S-S Y1 dimer: Y1 sulfide bridge dimer compared with CONY1 and Y1-IgG in the radioreceptor assay (protein)
scFv: MEVQLVESGGGVVRPGGSLRLSCAASGFTFDDYGMSWVRQAPGKGLEWVSGINWNGGSTGYADSVKGRFTISRDNAKNSLYLQMNSLRAEDTAVYYCARMRAPVIWGQGTLVTVSRGGGGSGGGGSGGGGSSELTQDPAVSVALGQTVRITCQGDSLRSYYASWYQQKPGQAPVLVIYGKNNRPSGIPDRFSGSSSGNTASLTITGAQAEDEADYYCNSRDSSGNHVVFGGGTKLTVLGGGGCKAK
B2: CONY1: scFv derived from Y1 scFv in which the myc tag is replaced by lysine, alanine, lysine (KAK); SEQ ID NO: 204 (protein, listed as Homo sapiens)
scFv: MKYLLPTAAAGLLLLAAQPAMAEVQLVESGGGVVRPGGSLRLSCAASGFTFDDYGMSWVRQAPGKGLEWVSGINWNGGSTGYADSVKGRFTISRDNAKNSLYLQMNSLRAEDTAVYYCARMRAPVIWGQGTLVTVSRGGGGSGGGGSGGGGSSELTQDPAVSVALGQTVRITCQGDSLRSYYASWYQQKPGQAPVLVIYGKNNRPSGIPDRFSGSSSGNTASLTITGAQAEDEADYYCNSRDSSGNHVVFGGGTKLTVLGAAAKAK

How the values were obtained:
KG-1 cells [1] = assay: Radioreceptor binding assay with KG-1 cells; design: species or system human; conditions: 2 ng/tube 125I-Y1-IgG tracer
Experimental: The assay system involved the use of radioactive ligands that were prepared by iodination with ^125I using chloramine T on the Y1-IgG construct or the Bolton-Hunter (CONY1) reagent. The assay tubes contained 5×10^6 KG-1 cells per 0.2 ml and a labeled tracer with varying amounts of unlabeled competitor, in PBS+0.1% BSA, pH 7.4. After one hour incubation with agitation at 4° C., the cells were thoroughly washed with cold buffer and taken for radioactivity counting.
For the radio receptor binding assay (RRA), 2 ng/tube of ^125I-Y1-IgG was used, and competition was performed with each of the three molecules. […] A rough estimate of the affinity of the Y1-IgG in this experiment is 2×10^−8 M. The corresponding affinity of the dimer is, therefore, 4×10^−8 M.
In a second RRA using labeled CONYL, a 100 ng/tube of ^125I-Y1-IgG was used, and competition was performed with each of the three molecules. […] A rough estimate of the affinity of CONY 1 in this experiment is 10^−6M. The corresponding affinity of the dimer is, therefore, 5×10^−8 M.

KG-1 cells [2] = assay: AML KG-1 model in SCID/NOD mice; format: in vivo
Experimental: The in vivo mouse model for human AML uses SCID/NOD mice (Jackson Laboratories) inoculated with KG-1 cells derived from a human AML cell line.
In a first experiment, NOD/SCID mice were pretreated with 100 mg/kg CYTOXAN®. Four days post CYTOXANT injection, KG-1 cells were injected intravenously into the tail vein of six groups of mice. (Table N, Groups 2 and 5-9). One group of mice (Table N, Group 1) was injected with PBS alone (control).
Beginning 19 days post KG-1 injection mice were treated with: CONY1, Doxorubicin, CONY1-Doxorubicin conjugate, or Mylotarg®. (Mylotarg® is a monoclonal antibody (anti CD33) conjugated chemically to calcheamicin recently approved by the FDA for treatment of AML patients age 60 and over in a first relapse.) Mice were treated once or three times per week for three weeks. […]
Mice were sacrificed from 60 to 65 days post cell injection. Bone marrow and blood samples were analyzed by flow cytometry using mouse anti human CD34-FITC (IQP 144F) (or anti CD44-FITC (MCA89F, Serotec)) and Y1-Biotin/SAV-PE. […]
An additional experiment was performed in which SCID-NOD mice were i.v. injected with 3×10^4 MOLT-4 cells/mouse 5 days post treatment with cyclophosphamide. […] Bone marrow was extracted and analyzed by FACS analysis using a commercially available antiCD44 antibody for the detection of MOLT-4 cells in the mice bone marrow cell population.

MOLT-4 cells = assay: T-ALL (MOLT4) model in SCID mice; format: in vivo
Experimental: The in vivo mouse model for T-ALL uses SCID mice (Jackson Laboratories) injected with MOLT4 cells derived from a T cell leukemia patient.
In one experiment, SCID mice were pretreated with 100 mg/kg Cytoxan (CTX, Cyclophosphamid for injection, Mead Johnson). Eleven days after CTX injection, MOLT-4 cells were injected intravenously into the tail vein. Control mice were injected with PBS alone. One week post-MOLT-4 injection mice were injected with CONY1-Doxorubicin, which is a conjugate between scFv CON Y1 polypeptide, having KAK amino acid residues at its carboxy end and doxorubicin via a short organic linker; CONY1, which is a scFv antibody fragment derived from Y1 scFv in which the DNA sequences encoding the myc tag of Y1 were deleted and replaced with a DNA sequence encoding the amino acids lysine, alanine, lysine (KAK); or free Doxorubicin. The mice were injected three times per week for three weeks. […] (Table M).
Mice started to die 32 days post cell inoculation, and the surviving mice were sacrificed at this time. Bone marrow cells were analyzed by flow cytometry using anti-human CD44-FITC and Y1-Biotin/SAV-PE. Blood samples from several animals were monitored for platelet and white blood cell count. Livers were weighted and examined for appearance. Other organs were also examined for tumor appearance.
In a second experiment, SCID mice were i.v. injected with 2×10^7 MOLT-4 cells/mouse, 5 days post treatment with cyclophosphamide. Anti-cancer agents or PBS (negative control animals) were injected i.v. three times/week from day 5 post MOLT-4 cells injection and onward. On day 35, blood was drawn from the animals, the animals were sacrificed, and their livers were excised and weighed. In the untreated, PBS-treated MOLT-4 cell-bearing animals, the liver presented with a very massive tumor growth, and its size was increased 2-3-fold relative to PBS control uninfected animals. In this experiment, there were five treatment groups:
In parallel, portions of liver tissue were taken for histology and cell harvesting for FACS analysis. The survival rate of another group of treated animals was recorded relative to that of control untreated mice.
In a third experiment, using the identical SCID/MOLT-4 protocol, there were 6 groups: […]

[3] = mouse, in vivo
Experimental: The radioactive protein was then admixed with unlabeled CONY-1 to yield a solution of 75 μg/ml CONY-1 containing 2.5×10^6 CPM/ml in saline.
Male Balb-C mice were pretreated by intraperitoneal injection of 0.5 ml/mouse of 0.9% NaI. After 2 hours, the mice were injected intravenously with 0.2 ml of the labeled CONY-1 solution, resulting in a ^125I-CONY-1 dose of 15 μg (5×10^5 CPM) per mouse.
At various times after injection, blood was collected over EDTA, mice were sacrificed, and tissues were excised. Samples and organs were taken at 5, 15, and 30 minutes and at 1, 2, 4, 8, and 24 hours after injection. Two to four mice were used per time point. Plasma was separated and either counted for gamma radioactivity or subjected to precipitation with trichloroacetic acid (TCA). After centrifugation, TCA precipitates were subjected to gamma radioactivity counting. Liver, lung, kidney, spleen, and bone marrow samples were weighed and counted for gamma radioactivity. Plasma TCA precipitated radioactivity was plotted against time, and a two-compartment kinetics model was fitted. Organ/tissue total and specific radioactivity values were calculated.

[4] = molecular target: T1, GPIb (glycocalicin) derived from platelets (Homo sapiens, UniProt P07359); assay: ELISA to GC (glycocalicin), monomer versus dimer; format: binding
T1 construct: glycocalicin (soluble, extracellular fragment of GPIbα); from tissue; host or cells: human platelets
Experimental: An ELISA assay was performed to ascertain the differences in binding between the monomer (the Y1 scFv-also known as Y1-kak) and the dimer Y1-cys-kak (the cysteine dimer) for antigen GPIb (glycocalicin) derived from platelets. A polyclonal anti single chain antibody and/or a novel polyclonal anti-VL (derived from rabbits) and anti-rabbit HRP, were used to detect the binding to GPIb. […] For instance, to reach 0.8 OD units 12.8 μg/ml of monomer was used compared to only 0.1 μg/ml of dimer.
100 ml of purified glycocalicin was incubated in a 96 flat well maxisorp plates, overnight at 4 degrees celsius. The plate was washed with PBST (PBS+0.05% tween) 3 times, then […] of PBST-milk (PBST+2% Non fat milk), for 1 hr at room temperature. The plate was washed with PBST, and the monomer or dimer (100 ml) was added in PBST-milk at different concentrations for 1 hr at room temp. Then the plate was washed and anti-VL polyclonal (derived from immunized rabbits with VL derived from Y1) (1:100 diluted in PBST-milk) was added for an hour. The plate was washed and anti-rabbit HRP was added for an additional hour. The plate was washed 5 times and 100 μl TMB substrate was added for approximately 15 minutes then 100 μl of 0.5H2SO4 was added to stop the reaction. The optical density of the plate was measured at 450 nm in an ELISA reader.

Molecule	affinity relative to the full Y1 antibody (KG-1 cells [1])	percentage of KG-1 cells in bone marrow (in words) (KG-1 cells [2]; KG-1 cells incubated in vitro with scFv before injection (groups 3 and 4))	development of the malignancy / prevalence of bone marrow cancer (in words) (KG-1 cells [2]; additional experiment, day 60, CONY1 scFv 75 μg/mouse three times/week, Mylotarg 7 μg/mouse once a week)	liver weight versus free Doxorubicin-treated or untreated MOLT-4 mice (MOLT-4 cells; first experiment, three times per week for three weeks, sacrifice 32 days post inoculation)	survival (MOLT-4 cells; mice from three groups with continued treatment)	liver weights / tumor growth in the liver (MOLT-4 cells; second experiment, day 35, i.v. three times/week, scFv or conjugate 75 μg/mouse, Doxorubicin 0.1 mg/kg)	tumor growth (based on liver weights) (MOLT-4 cells; third experiment, scFv 75 μg/mouse, IgG 5 μg/mouse)	distribution between plasma and erythrocytes (in words) [3]	half-life of blood clearance, first compartment ([3]; iv) [h]	half-life of blood clearance, second compartment ([3]; iv) [h]	concentration used to reach 0.8 OD units [4] [µg/mL]
B1	twofold lower										
B2		significantly lower percentage	no effect	weighted significantly less	prolonged	markedly inhibited tumor growth in the liver	inhibited tumor growth	did not adhere to erythrocytes	0.583	3.17	12.8
